Patent publication US12031137B2, “Compositions comprising SASP modulators and senescence attenuators and uses thereof for modulating cellular senescence” (RSEM, LIMITED PARTNERSHIP, priority 2016, dated 2024)
Positions count from the first letter of the chain named. Numbers in names are those of the source. Each block holds one molecule with its values, some of them ahead of it.

Tests used:
human VEGF165 = target: T1, human VEGF165 (Homo sapiens, UniProt P15692); assay: AP-VEGF165 binding assay on plate-coated purified traps (saturation curves, KD); details: AP-VEGF165 ligand; for Kd: read-out: VEGF165 binding (dissociation constant)
T1 construct: made in house; host or cells: HEK293T
T1 sequence (P15692 27-191 isoform P15692-4): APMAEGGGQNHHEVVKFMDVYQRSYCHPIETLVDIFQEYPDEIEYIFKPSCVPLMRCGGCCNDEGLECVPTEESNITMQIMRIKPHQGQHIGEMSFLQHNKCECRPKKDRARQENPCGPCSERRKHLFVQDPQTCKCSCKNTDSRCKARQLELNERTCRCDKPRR
Description: Production of AP-VEGF165. the coding sequence of the human VEGF165 variant 1 (NM_001025366) was sub-cloned in the pAPtag5 vector (GenHunter), in-frame with an Alkaline Phosphatase domain (AP-VEGF165). HEK293T cells were transfected with the AP-VEGF165 construct using a polyethylenimine (PEI) transfection method. Following the overnight transfection step, cells were cultured for an additional 60 hr in serum free media (In vitrogen). The cell media were collected and concentrated on a PES device (Pierce). The concentrated AP-VEGF165 ligand was analysed on PAGE-SDS and quantified using SimplyBlue safe stain (Life technologies).
(§1) Sema 3A and AP-VEGF165 binding assays. Saturation curves for the determinations of KD of binding to SEMA 3A or VEGF165 were obtained as follow. Wells of high protein binding 96 well plates (Maxisorp, Nunc) were coated with purified traps diluted in PBS and blocked afterward with binding buffer (PBS containing 2% casein and 0.05% Tween 20). The SEMA3A-FC (R&D systems) or AP-VEGF165 ligands were diluted in binding buffer over an extensive range of concentrations and added to wells. Following an overnight incubation, wells were washed with PBS containing 0.05% tween. Bound SEMA3a-FC was detected using an HRP-linked anti-Human IgG (Biorad) and ECL substrate (Pierce). Alternatively, bound AP-VEGF165 was detected using CPD star substrate (Roche). The Chemiluminescent signal was acquired on a TECAN reader. Dissociation constant (KD) were determined by non-linear curve fitting using the Graph Pad prism software.
(§2) The relative affinity of traps of the present invention to SEMA3A and VEGF has been assessed. Traps were prepared as described in Example 8.

[1] = tested on: mouse model of oxygen-induced retinopathy (OIR); assay: SA-β-gal staining of retinas in oxygen-induced retinopathy (OIR) after intravitreal injection; assay type: in vivo; details: single intravitreal injection at P12, vs vehicle
From the text: O2-induced retinopathy. Mouse pups from different strains (C57Bl/6 WT, LyzM-Cre, LysM-Cre/IRE1^fl/fl, LysM-Cre/IRE1^+/+, IRE1^fl/fl and LysM-Cre/ROSA26EYFP^fl/fl), and their fostering mothers (CD1, Charles River) were exposed to 75% 02 from postnatal day 7 (P7) to day 12 and returned to room air. This model serves as a proxy to human ocular neovascular diseases such as ROP and diabetic retinopathy characterized by a late phase of destructive pathological angiogenesis (72, 73). Upon return to room air, hypoxia-driven neovascularization (NV) develops from P14 onwards (27). We enucleated eyes at different time points and dissected the retinas for mRNA, protein assays or flatmounting.
Senescence-associated β-galactosidase (SA-β-gal) assay. Senescence-associated β-galactosidase assays were carried out as described previously (57, 75)
Quantification of SA-β-gal in vivo. Senescence-associated β-galactosidase staining in flatmount retinas or sagittal eye sections were analyzed using Image J software as described in FIG. 14.
Intravitreal injections. P2, P10 or P12 C57BL/6 pups were anesthetized with 3.0% isoflurane and injected in the vitreous chamber with 0.5 μL of lentivirus (see “Lentivirus production”), recombinant SEMA3A (100 ng/μL), metformin (10 μg/μL) or Aflibercept (10 μg/uL) using a 10-μL Hamilton syringe fitted with a […] glass capillary tip. Approximately 254±11.0 ng/μL of lentivirus Sh_GFP and 323.3±15.3 ng/μL containing Sh_Sema3a, Lv.Cre (15.0 ng/mL), Lv.GFP (15.0 ng/mL) was injected. Virus titers were assessed with the p24 ELISA kit (ZeptoMetrix). The titers of the lentiviruses used were (in ng p24) LV.Sh_RNA IRE1α (8.52 ng/mL), and LV.Sh_RNA.GFP (8.47 ng/mL).

SEMA3A-FC = assay: Sema 3A binding assay on plate-coated purified traps (saturation curves, KD); details: for Binding to SEMA3A: Table 2, Yes/No; for Kd / SEMA 3A-FC binding (dissociation constant): traps coated on plate, overnight incubation; for Kd: read-out: SEMA 3A-FC binding (dissociation constant)
Description: as §1, §2

Molecule: Trap G: NRP1 trap a1a2-b1b2-c, aa about 22-856; SEQ ID NOs 67/68
Kd (human VEGF165): 6.75 nM
SA-β-gal staining at P17 OIR (cellular senescence) [1]: significant attenuation
Binding to SEMA3A (SEMA3A-FC): Yes
preference for SEMA3A over VEGF binding (SEMA3A-FC; in words): much less important
Kd (SEMA3A-FC): 0.8 nM

B1: Trap N: NRP1 trap a1a2, aa about 22-265; SEQ ID NOs 85/86 (protein)
chain: FRNDKCGDTIKIESPGYLTSPGYPHSYHPSEKCEWLIQAPDPYQRIMINFNPHFDLEDRDCKYDYVEVFDGENENGHFRGKFCGKIAPPPVVSSGPFLFIKFVSDYETHGAGFSIRYELFKRGPECSQNYTTPSGVIKSPGFPEKYPNSLECTYIVFAPKMSEIILEFESFDLEPDSNPPGGMFCRYDRLEIWDGFPDVGPHIGRYCGQKTPGRIRSSSGILSMVFYTDSAIAKEGFSANYSVLRSGSKENLYFQG
Kd (human VEGF165): > 250 nM
Binding to SEMA3A (SEMA3A-FC): No
Kd (SEMA3A-FC): > 1000 nM

B2: Trap AE: NRP1 trap a1a2b1b2, aa about 22-560, D320K; SEQ ID NOs 53/54 (protein)
chain: MERGLPLLCAVLALVLAPAGAFRNDKCGDTIKIESPGYLTSPGYPHSYHPSEKCEWLIQAPDPYQRIMINFNPHFDLEDRDCKYDYVEVFDGENENGHFRGKFCGKIAPPPVVSSGPFLFIKFVSDYETHGAGFSIRYELFKRGPECSQNYTTPSGVIKSPGFPEKYPNSLECTYIVFAPKMSEIILEFESFDLEPDSNPPGGMFCRYDRLEIWDGFPDVGPHIGRYCGQKTPGRIRSSSGILSMVFYTDSAIAKEGFSANYSVLQSSVSEDFKCMEALGMESGEIHSDQITASSQYSTNWSAERSRLNYPENGWTPGEKSYREWIQVDLGLLRFVTAVGTQGAISKETKKKYYVKTYKIDVSSNGEDWITIKEGNKPVLFQGNTNPTDVVVAVFPKPLITRFVRIKPATWETGISMRFEVYGCKITDYPCSGMLGMVSGLISDSQITSSNQGDRNWMPENIRLVTSRSGWALPPAPHSYINEWLQIDLGEEKIVRGIIIQGGKHRENKVFMRKFKIGYSNNGSDWKMIMDDSKRKAKSFEGNNNYDTPELRTFPALSTRFIRIYPERATHGGLGLRMELLGCRSGSKENLYFQG
VEGF165 binding (dissociation constant) (human VEGF165): No binding
Binding to SEMA3A (SEMA3A-FC): No
SEMA 3A-FC binding (dissociation constant) (SEMA3A-FC): No binding

B4: Trap AC: NRP1 trap a1a2-b1b2-c, aa about 22-856, D320K; SEQ ID NOs 75/76 (protein)
chain: FRNDKCGDTIKIESPGYLTSPGYPHSYHPSEKCEWLIQAPDPYQRIMINFNPHFDLEDRDCKYDYVEVFDGENENGHFRGKFCGKIAPPPVVSSGPFLFIKFVSDYETHGAGFSIRYELFKRGPECSQNYTTPSGVIKSPGFPEKYPNSLECTYIVFAPKMSEIILEFESFDLEPDSNPPGGMFCRYDRLEIWDGFPDVGPHIGRYCGQKTPGRIRSSSGILSMVFYTDSAIAKEGFSANYSVLQSSVSEDFKCMEALGMESGEIHSDQITASSQYSTNWSAERSRLNYPENGWTPGEKSYREWIQVDLGLLRFVTAVGTQGAISKETKKKYYVKTYKIDVSSNGEDWITIKEGNKPVLFQGNTNPTDVVVAVFPKPLITRFVRIKPATWETGISMRFEVYGCKITDYPCSGMLGMVSGLISDSQITSSNQGDRNWMPENIRLVTSRSGWALPPAPHSYINEWLQIDLGEEKIVRGIIIQGGKHRENKVFMRKFKIGYSNNGSDWKMIMDDSKRKAKSFEGNNNYDTPELRTFPALSTRFIRIYPERATHGGLGLRMELLGCEVEAPTAGPTTPNGNLVDECDDDQANCHSGTGDDFQLTGGTTVLATEKPTVIDSTIQSEFPTYGFNCEFGWGSHKTFCHWEHDNHVQLKWSVLTSKTGPIQDHTGDGNFIYSQADENQKGKVARLVSPVVYSQNSAHCMTFWYHMSGSHVGTLRVKLRYQKPEEYDQLVWMAIGHQGDHWKEGRVLLHKSLKLYQVIFEGEIGKGNLGGIAVDDISINNHISQEDCAKPADLDKKNPEIKIDETGSTPGYEGEGEGDKNISRKPGNVLKTLDPRSGSKENLYFQG
VEGF165 binding (dissociation constant) (human VEGF165): No binding
Binding to SEMA3A (SEMA3A-FC): Yes
Kd (SEMA3A-FC): 4 nM

B5: Trap AB: NRP1 trap a1a2-b1b2-c, aa about 22-856, E348K, S346A; SEQ ID NOs 73/74 (protein)
chain: B4 chain with K299D, S325A, E327K
Kd (human VEGF165): 29.5 nM
Binding to SEMA3A (SEMA3A-FC): No

B6: Trap AS: NRP1 trap a2b1c, aa about 22-26, 143-430 and 584-856; SEQ ID NOs 65/66 (protein)
chain: MERGLPLLCAVLALVLAPAGAFRNDKRGPECSQNYTTPSGVIKSPGFPEKYPNSLECTYIVFAPKMSEIILEFESFDLEPDSNPPGGMFCRYDRLEIWDGFPDVGPHIGRYCGQKTPGRIRSSSGILSMVFYTDSAIAKEGFSANYSVLQSSVSEDFKCMEALGMESGEIHSDQITASSQYSTNWSAERSRLNYPENGWTPGEDSYREWIQVDLGLLRFVTAVGTQGAISKETKKKYYVKTYKIDVSSNGEDWITIKEGNKPVLFQGNTNPTDVVVAVFPKPLITRFVRIKPATWETGISMRFEVYGCKITDYPEVEAPTAGPTTPNGNLVDECDDDQANCHSGTGDDFQLTGGTTVLATEKPTVIDSTIQSEFPTYGFNCEFGWGSHKTFCHWEHDNHVQLKWSVLTSKTGPIQDHTGDGNFIYSQADENQKGKVARLVSPVVYSQNSAHCMTFWYHMSGSHVGTLRVKLRYQKPEEYDQLVWMAIGHQGDHWKEGRVLLHKSLKLYQVIFEGEIGKGNLGGIAVDDISINNHISQEDCAKPADLDKKNPEIKIDETGSTPGYEGEGEGDKNISRKPGNVLKTLDPRSGSKENLYFQG
Binding to SEMA3A (SEMA3A-FC): Yes

B7: Trap AD: NRP1 trap a1a2b1, aa about 22-424 and 561-583, D320K; SEQ ID NOs 51/52 (protein)
chain: MERGLPLLCAVLALVLAPAGAFRNDKCGDTIKIESPGYLTSPGYPHSYHPSEKCEWLIQAPDPYQRIMINFNPHFDLEDRDCKYDYVEVFDGENENGHFRGKFCGKIAPPPVVSSGPFLFIKFVSDYETHGAGFSIRYELFKRGPECSQNYTTPSGVIKSPGFPEKYPNSLECTYIVFAPKMSEIILEFESFDLEPDSNPPGGMFCRYDRLEIWDGFPDVGPHIGRYCGQKTPGRIRSSSGILSMVFYTDSAIAKEGFSANYSVLQSSVSEDFKCMEALGMESGEIHSDQITASSQYSTNWSAERSRLNYPENGWTPGEKSYREWIQVDLGLLRFVTAVGTQGAISKETKKKYYVKTYKIDVSSNGEDWITIKEGNKPVLFQGNTNPTDVVVAVFPKPLITRFVRIKPATWETGISMRFEVYGCRSGSKENLYFQG
VEGF165 binding (dissociation constant) (human VEGF165): No binding
Binding to SEMA3A (SEMA3A-FC): No
SEMA 3A-FC binding (dissociation constant) (SEMA3A-FC): No binding

Continued, values first:

Kd (human VEGF165): 20.7 nM
Binding to SEMA3A (SEMA3A-FC): Yes
Kd (SEMA3A-FC): 1.14 nM
Molecule: Trap W: NRP1 trap a1a2-b1-c (in part), aa about 22-430 and 584-795; SEQ ID NOs 87/88

Kd (human VEGF165): 24.6 nM
Binding to SEMA3A (SEMA3A-FC): Yes
Molecule: Trap S: NRP1 trap a1a2-b1-c, aa about 22-430 and 584-856; SEQ ID NOs 93/94

Kd (human VEGF165): 67 nM
Binding to SEMA3A (SEMA3A-FC): Yes
B3: Trap Z: NRP1 trap a1a2-b1b2-c, aa about 22-856, E319K, D320K; SEQ ID NOs 71/72 (protein)
chain: B4 chain with E298K
